Measurements published in patent US20250250335A1 (SHENGHE CHINA BIOPHARMACEUTICAL, published 2025).
Where two headings read alike, the source gives them in different places.

Tests used:
[1] = target: T1, human CEACAM5-his (ACRO CE5-H5226) (human, UniProt P06731 35-685); experiment: ELISA on coated human CEACAM5, OD450
T1 construct: Bought protein; not shown: His tag
T1 sequence (looked up): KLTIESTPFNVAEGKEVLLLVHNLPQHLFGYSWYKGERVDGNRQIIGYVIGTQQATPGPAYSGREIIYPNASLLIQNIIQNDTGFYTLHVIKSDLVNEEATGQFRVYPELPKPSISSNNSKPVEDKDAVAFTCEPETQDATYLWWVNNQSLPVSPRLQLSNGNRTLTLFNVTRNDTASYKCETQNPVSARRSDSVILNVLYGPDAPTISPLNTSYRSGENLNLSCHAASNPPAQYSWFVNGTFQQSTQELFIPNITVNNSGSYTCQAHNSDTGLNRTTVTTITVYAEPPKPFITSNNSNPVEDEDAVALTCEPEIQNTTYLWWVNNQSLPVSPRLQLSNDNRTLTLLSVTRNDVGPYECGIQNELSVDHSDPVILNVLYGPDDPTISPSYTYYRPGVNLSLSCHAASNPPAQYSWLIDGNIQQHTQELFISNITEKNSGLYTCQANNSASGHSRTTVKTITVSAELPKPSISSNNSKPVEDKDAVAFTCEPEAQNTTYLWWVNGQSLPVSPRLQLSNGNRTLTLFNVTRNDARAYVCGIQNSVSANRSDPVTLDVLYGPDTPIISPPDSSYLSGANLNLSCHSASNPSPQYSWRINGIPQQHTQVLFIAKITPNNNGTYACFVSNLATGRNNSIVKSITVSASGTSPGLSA
Experimental: (§1) The binding activity of the antibodies to human CEACAM5, human CEACAM6, and human CEACAM6 (AB) proteins was detected by ELISA. The plate coated with proteins was incubated at 4° C. overnight, and the 96-well ELISA plate blocked with 2% PBS-BSA was added with the antibody to be detected and incubated at 37° C. for 1 h. After washing 3 times with PBS containing 0.05% Tween, the absorbance value of each well was read at wavelength 450 nm with the gradient-diluted mouse-derived candidate antibody as the primary antibody and anti-mouse-IgG-FC-HRP as the secondary antibody, and the absorbance value of each well was read at wavelength 450 nm after the TMB color development.

[2] = target: T1, human CEACAM5-his (ACRO CE5-H5226); experiment: ELISA on coated human CEACAM5, OD450; remark: listed apart in the source
Outline: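 Plates coated overnight at 4 °C with antigen and blocked with 2% BSA in PBS received gradient-diluted mouse candidate antibodies for 1 h at 37 °C. Binding was detected with anti-mouse IgG Fc-HRP and TMB, read as OD450.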

[3] = target: T1, human CEACAM5-his (ACRO CE5-H5226); experiment: SPR (Biacore), antibody captured on CM5 chip, antigen as analyte, 1:1 model
Experimental: The CM5 sensor chip was activated at a flow rate of 10 μL/min for 420 seconds. The channel was then injected with 30 μg/mL of anti-rat Fc IgG in 10 mM NaAc (pH 4.5) at a flow rate of 10 μL/min. The chip was inactivated with 1 M ethanolamine-hydrochloric acid (GE) for 420 seconds at a flow rate of 10 μL/min.
Candidate antibodies in running buffer 1×HBS-EP+ (10 mM HEPES, 150 mM NaCl, 3 mM EDTA, 0.05% Tween 20, pH 7.4) were captured onto Fc2 with anti-rat Fc IgG at a flow rate of 10 μL/min. The 10 nM human CEACAM5-his protein or CEACAM-6-his or CEACAM6 (AB)-his protein and running buffer were sequentially injected into Fc1-Fc2 at a flow rate of […], bound for 180 seconds, and then dissociated for 3600 seconds. 10 mM glycine (pH 1.5) was injected as regeneration buffer after each dissociation.
Result plots for the reference channel Fc1 and the buffer channel were subtracted from the test result plots. The experimental data fit the 1:1 binding model. The molecular weight of 110 KDa was used to calculate the molar concentration of CEACAM5 protein, 55 KDa for human CEACAM6-his, and 55 KDa for human CEACAM6 (AB)-his.

[4] = target: T2, CEACAM5 on the surface of the tumor cells (HPAFII cells) (UniProt P06731 35-685); experiment: flow cytometry on HPAFII cells (Mean-FITC); the cells carry CEACAM5 and CEACAM6, signal not divided between the two
T2 construct: whole, on cells
T2 sequence (looked up): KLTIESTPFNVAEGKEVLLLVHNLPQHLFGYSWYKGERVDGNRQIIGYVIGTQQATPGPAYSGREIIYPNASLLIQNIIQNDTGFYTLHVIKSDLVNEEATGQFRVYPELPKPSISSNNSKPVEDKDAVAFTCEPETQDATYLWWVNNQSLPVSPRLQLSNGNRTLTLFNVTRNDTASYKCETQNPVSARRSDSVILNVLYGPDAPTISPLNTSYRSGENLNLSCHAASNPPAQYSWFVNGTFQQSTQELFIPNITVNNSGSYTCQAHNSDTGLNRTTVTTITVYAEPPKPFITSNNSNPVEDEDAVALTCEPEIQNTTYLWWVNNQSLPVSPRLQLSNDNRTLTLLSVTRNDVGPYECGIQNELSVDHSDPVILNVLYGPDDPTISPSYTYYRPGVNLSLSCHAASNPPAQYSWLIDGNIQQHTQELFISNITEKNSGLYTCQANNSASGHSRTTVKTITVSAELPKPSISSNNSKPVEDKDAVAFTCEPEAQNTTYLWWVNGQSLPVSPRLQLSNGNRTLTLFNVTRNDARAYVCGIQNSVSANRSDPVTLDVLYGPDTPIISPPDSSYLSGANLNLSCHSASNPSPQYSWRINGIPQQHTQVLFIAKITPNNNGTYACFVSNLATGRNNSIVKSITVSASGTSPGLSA
Experimental: (§2) The antibody to be tested was taken as the initial concentration of 200 nM and diluted 5-fold with 6 gradients. The HPAFII cells (From USTC […] FOR ADVANCED STUDIES) in the incubator were taken out, and the cell suspension was transferred to a 15 mL centrifuge tube, centrifuged, and counted by resuspension in PBS. A blank control group (Blank), a negative control group (NC), an experimental group, a positive control group and the irrelevant antibody group were kept. […] The cell suspension was spread in a 96-well plate according to about 3×10⁵ cells/well. Centrifugation (1000 rpm, 5 min) was performed, followed by washing with PBS, re-centrifugation, and repeated twice to remove media residues. The supernatant was discarded, 100 μL of primary antibody solution and irrelevant antibody solution were added to the experimental group and irrelevant antibody group, respectively, and the cells were resuspended and incubated at room temperature for 1 h. The blank group, and the negative control group were incubated with an equal amount of PBS.
(§3) After 1 h, PBS was added to wash twice. After the supernatant was discarded, 100 μL of fluorescent secondary antibody dilution (Mouse-derived secondary antibody from Abcam ab6785) was added to each sample group, except for the blank group which was added with 100 μL of PBS. After incubation at room temperature and protected from light for 0.5 h, centrifugation was performed and PBS added to wash the samples twice. After the supernatant was discarded, 120 μL of PBS was added to resuspend and sequentially flow cytometry was performed to detect the mean fluorescence intensity. The concentration of the antibody was logarithmically taken as the horizontal coordinate, and the Sigmoidaldose-response (VariableSlope) method (GraphPadPrism Software, GraphPadSoftware, San Diego, California) was chosen to perform a nonlinear regression to obtain the binding activity curves of the antibody on HPAFII cells.

[5] = target: T2, CEACAM5 on the surface of the tumor …; experiment: as above; remark: listed apart in the source
Experimental: as §2, §3

[6] = target: T2, CEACAM5 on the surface of the tumor …; experiment: as above; remark: listed apart in the source
Experimental: as §2, §3

[7] = target: T2, CEACAM5 on the surface of the tumor …; experiment: as above; remark: listed apart in the source
Experimental: as §2
After 1 h, PBS was added to wash twice. […] After the supernatant was discarded, 120 μL of PBS was added to resuspend and sequentially flow cytometry was performed to detect the mean fluorescence intensity. […]

mouse CEACAM5 = target: T3, mouse CEACAM5 (mouse, UniProt Q3UKK2 35-947, limits assumed); experiment: ELISA on coated protein, OD450
T3 sequence (looked up): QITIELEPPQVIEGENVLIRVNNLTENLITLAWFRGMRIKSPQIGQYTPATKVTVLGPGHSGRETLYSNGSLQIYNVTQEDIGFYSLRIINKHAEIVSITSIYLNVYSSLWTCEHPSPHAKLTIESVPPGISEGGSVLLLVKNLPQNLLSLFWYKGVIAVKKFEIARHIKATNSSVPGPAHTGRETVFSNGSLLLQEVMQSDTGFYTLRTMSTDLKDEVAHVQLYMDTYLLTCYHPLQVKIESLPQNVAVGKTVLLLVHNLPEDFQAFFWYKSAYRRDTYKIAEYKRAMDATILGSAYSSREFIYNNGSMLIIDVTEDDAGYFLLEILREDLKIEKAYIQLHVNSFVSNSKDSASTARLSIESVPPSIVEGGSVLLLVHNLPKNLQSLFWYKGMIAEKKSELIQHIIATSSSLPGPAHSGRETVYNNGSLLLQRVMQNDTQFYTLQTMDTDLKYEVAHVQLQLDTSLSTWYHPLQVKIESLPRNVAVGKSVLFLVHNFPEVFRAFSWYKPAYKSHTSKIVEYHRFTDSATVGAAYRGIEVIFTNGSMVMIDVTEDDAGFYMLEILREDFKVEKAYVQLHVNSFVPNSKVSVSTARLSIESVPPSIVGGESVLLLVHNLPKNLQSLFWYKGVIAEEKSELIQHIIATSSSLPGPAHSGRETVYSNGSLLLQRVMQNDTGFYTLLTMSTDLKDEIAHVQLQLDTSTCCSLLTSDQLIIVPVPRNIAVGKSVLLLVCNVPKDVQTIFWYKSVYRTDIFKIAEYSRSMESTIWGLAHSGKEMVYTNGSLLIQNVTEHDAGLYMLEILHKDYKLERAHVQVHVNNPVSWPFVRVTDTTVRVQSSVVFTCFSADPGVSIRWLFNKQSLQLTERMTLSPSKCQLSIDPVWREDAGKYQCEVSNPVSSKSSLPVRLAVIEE
Outline: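 Plates coated overnight at 4 °C with mouse CEACAM5 protein, blocked with 2% BSA in PBS, then incubated with test antibody 1 h at 37 °C. Binding detected with HRP-conjugated goat anti-mouse IgG-Fc and TMB, absorbance read at 450 nm.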

[8] = target: T4, human CEACAM6-his (ACRO CE6-H5223) (human, UniProt P40199 35-320); experiment: ELISA on coated human CEACAM6, OD450
T4 construct: Bought protein; not shown: His tag
T4 sequence (looked up): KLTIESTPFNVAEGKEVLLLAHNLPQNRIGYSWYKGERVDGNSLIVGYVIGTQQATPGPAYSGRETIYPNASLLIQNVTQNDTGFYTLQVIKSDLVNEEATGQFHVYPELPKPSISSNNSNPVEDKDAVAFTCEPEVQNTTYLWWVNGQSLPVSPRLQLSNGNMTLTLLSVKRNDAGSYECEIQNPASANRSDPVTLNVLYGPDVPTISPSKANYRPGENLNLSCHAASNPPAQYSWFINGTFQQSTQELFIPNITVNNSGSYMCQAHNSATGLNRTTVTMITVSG
Experimental: as §1

[9] = target: T5, CEACAM6 on the surface of the tumor cells (HPAFII cells) (UniProt P40199 35-320); experiment: flow cytometry on HPAFII cells (Mean-FITC); the cells carry CEACAM5 and CEACAM6, signal not divided between the two
T5 construct: whole, on cells
T5 sequence (looked up): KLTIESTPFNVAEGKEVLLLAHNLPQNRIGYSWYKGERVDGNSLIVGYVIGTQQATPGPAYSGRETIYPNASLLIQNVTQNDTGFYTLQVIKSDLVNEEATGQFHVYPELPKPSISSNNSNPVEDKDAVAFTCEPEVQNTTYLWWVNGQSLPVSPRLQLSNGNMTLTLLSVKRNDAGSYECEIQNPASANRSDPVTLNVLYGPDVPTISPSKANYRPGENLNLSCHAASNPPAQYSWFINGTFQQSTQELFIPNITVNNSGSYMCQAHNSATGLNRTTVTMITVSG
Experimental: as §2, §3

| Binder | EC50 (read off the curve) [1] [µg/mL] | EC50 (read off the curve) [2] [ng/mL] | Kd [3] [nM] | EC50 (read off the curve) [4] [nM] | EC50 (read off the curve) [5] [nM] | EC50 (read off the curve) [6] [nM] | EC50 (read off the curve) [7] [µg/mL] | OD (mouse CEACAM5) [OD] | binding result [8] | binding result [9] | binding result [2] |
| --- | --- | --- | --- | --- | --- | --- | --- | --- | --- | --- | --- |
| NEO-201 antibody (msIgG2a subtype) (antibody, V domains shown) VH: QVQLVQSGAEVKKPGASVKVSCKASGYTFTDYAMHWVRQAPGQRLEWMGLISTYSGDTKYNQNFQGRVTMTVDKSASTAYMELSSLRSEDTAVYYCARGDYSGSRYWFAYWGQGTLVTVSS VL: DIQMTQSPSSLSASVGDRVTITCQASENIYGALNWYQRKPGKSPKLLIYGASNLATGMPSRFSGSGSGTDYTFTISSLQPEDIATYYCQQVLSSPYTFGGGTKLEIKR | ~0.004 | ~4 | 5.05 | ~3 | ~3 | ~2 | ~0.6 |  |  |  |  |
| Antibody 1 (antibody, V domains shown, Mouse-derived hybridoma antibody; also called mouse-derived antibody 1) VH: QVQLKQSGAELVRPGASVKLSCKTSGYIFTSYWIHWVKQRSGQGLEWIARIYPGTGSTYYNEKFKGKATLTADKSSSTAYMQLSSLKSEDSAVYFCARSGFPLTTVPLDYWGQGTTLTVSS VL: DVQITQSPSYLAASPGETITINCRASKSISKYLAWYQEKPGKTNKLLIYSGSTLQSGIPSRFSGSGSGTDFTLTISSLEPEDFAMYYCQQHNEYPFTFGSGTKLEIK | ~0.04 |  |  |  |  |  |  | 0.16 | binds | binds |  |
| Antibody 14 (antibody, V domains shown, Mouse-derived hybridoma antibody; also called mouse-derived antibody 14) VH: EVQLVETGGGLVQPKGSLKLSCAASGFSFNTNAMNWVRQAPGKGLEWVARIRSKSNNYATYYADSVKDRFTISRDDSQSMLYLQMNNLKTEDTAMYYCVSFLSLMDYWGQGTSVTVSS VL: QIVLTQSPAIMSASPGEKVTMTCSASSSISYMHWYQQKPGTSPKRWIYDTSKLASGVPARFSGSGSGTSYSLTISSMEAEDAATYYCHQRSSYPWTFGGGTKLEIK |  |  |  |  |  |  |  |  | binds |  | binds |
